Results taken from US20240051999A1 (JOHN INNES CENTRE, published 2024).

T1: UIM domain (C-terminal half with ubiquitin-interacting motifs) of Arabidopsis thaliana RPN10 (Arabidopsis thaliana, UniProt P55034 194-386)
T1 construct: domain: UIM domain
T1 sequence: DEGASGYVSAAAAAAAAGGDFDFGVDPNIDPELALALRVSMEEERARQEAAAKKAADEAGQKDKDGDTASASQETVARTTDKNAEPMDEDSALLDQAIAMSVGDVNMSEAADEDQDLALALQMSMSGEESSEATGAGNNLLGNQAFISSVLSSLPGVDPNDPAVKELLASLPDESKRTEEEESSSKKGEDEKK

T2: vWA (von Willebrand factor type A) domain of Arabidopsis thaliana RPN10 (Arabidopsis thaliana, UniProt P55034 1-193)
T2 construct: In Y2H it was a fusion to a GAL4 domain; also called AtvWA; AtRPN10 vWA domain
T2 sequence: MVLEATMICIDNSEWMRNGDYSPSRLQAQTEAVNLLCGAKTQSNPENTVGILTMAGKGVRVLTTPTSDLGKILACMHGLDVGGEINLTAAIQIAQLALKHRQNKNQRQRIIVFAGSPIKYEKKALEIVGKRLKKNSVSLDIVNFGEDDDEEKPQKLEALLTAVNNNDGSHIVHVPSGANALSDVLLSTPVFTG

B1: SAP05 (effector protein from AY-WB phytoplasma) (other)
chain: APNEEFVGDMRIVNVNLSNIDILKKHETFKKYFDFTLTGPRYNGNIAEFAMIWKIKNPPLNLLGVFFDDGTRDDEDDKYILEELKQIGNGAKNMYIFWQYEQK
notes: also called SAP05_AYWB; His-tagged SAP05
B2: ZnF (zinc-finger) domain of Arabidopsis thaliana SPL5 (other)
chain: SRLCQVDRCTVNLTEAKQYYRRHRVCEVHAKASAATVAGVRQRFCQQCSRFHELPEFDEAKRSCRRRLAGHNERRRKI
notes: domain: ZnF domain; Recombinant protein from E. coli; also called ZnF domain of AtSPL5

Columns and labels:
[1] = target: T1, UIM domain (C-terminal half with …); test: yeast two-hybrid
[2] = target: T2, vWA (von Willebrand factor type A) …; test: His-tag pull-down (iMAC), His-sumo-tagged vWA as bait

Row | Binder | binding result [1] | binding result [2]
1 | B1 | no binding | 
2 | B2 |  | no binding
